According to article PMC10398670 (EMBO Reports, 2023):

Assays:
GST::MIRO‐1 = biological target: T1, GST::MIRO‐1 (C. elegans, UniProt Q94263 1-601); assay: pull-down
T1 sequence (looked up): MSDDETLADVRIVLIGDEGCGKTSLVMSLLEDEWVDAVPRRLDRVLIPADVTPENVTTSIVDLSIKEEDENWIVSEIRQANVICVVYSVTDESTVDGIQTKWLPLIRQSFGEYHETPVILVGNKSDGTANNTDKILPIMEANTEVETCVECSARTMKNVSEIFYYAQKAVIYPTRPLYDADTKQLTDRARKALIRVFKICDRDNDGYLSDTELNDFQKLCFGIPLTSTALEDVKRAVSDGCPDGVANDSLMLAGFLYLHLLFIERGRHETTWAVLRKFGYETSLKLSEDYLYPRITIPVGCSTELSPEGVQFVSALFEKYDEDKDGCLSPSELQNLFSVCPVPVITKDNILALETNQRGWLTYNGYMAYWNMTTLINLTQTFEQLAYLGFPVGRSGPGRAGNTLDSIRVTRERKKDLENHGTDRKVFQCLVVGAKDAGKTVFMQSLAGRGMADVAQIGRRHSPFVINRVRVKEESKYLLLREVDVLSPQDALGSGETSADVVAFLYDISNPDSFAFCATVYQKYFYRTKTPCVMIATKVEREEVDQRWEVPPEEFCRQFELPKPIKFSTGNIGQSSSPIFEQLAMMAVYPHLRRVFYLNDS

MIRO‐1::His = biological target: T2, MIRO‐1::His (C. elegans, UniProt Q94263 1-601); assay: cross-linking
T2 sequence (looked up): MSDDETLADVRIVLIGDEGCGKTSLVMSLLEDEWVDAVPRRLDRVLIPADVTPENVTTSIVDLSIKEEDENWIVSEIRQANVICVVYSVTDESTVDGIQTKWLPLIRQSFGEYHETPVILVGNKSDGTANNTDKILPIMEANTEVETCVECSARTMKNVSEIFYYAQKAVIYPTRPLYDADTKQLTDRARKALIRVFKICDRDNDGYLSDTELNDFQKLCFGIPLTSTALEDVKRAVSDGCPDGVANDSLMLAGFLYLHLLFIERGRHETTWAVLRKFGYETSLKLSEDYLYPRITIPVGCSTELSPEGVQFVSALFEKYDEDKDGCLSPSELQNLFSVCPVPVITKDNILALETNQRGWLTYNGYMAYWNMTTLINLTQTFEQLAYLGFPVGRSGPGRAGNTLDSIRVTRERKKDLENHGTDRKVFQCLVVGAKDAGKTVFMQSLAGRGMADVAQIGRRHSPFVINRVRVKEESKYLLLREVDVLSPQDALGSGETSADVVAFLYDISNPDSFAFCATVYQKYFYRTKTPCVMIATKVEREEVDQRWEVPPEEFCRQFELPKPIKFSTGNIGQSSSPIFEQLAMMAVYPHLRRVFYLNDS

binding result (GST::MIRO‐1): binds
binding result (MIRO‐1::His): binds
B1: VDAC‐1::His (natural protein, C. elegans, UniProt Q21752 1-283, looked up)
chain: MAPPTFADLGKSAKDLFNKGYNFGFLKIDSTTRAGDNKEVEFKSAASHNIGSGKLGGNLDVKYKIPQYGITLTEKWNTENQLGTVIEVNEQFGRGLKVTLDSLYAPHAGKRSGKVKLDWALPTARVTADVGVTSAPVINAAGVFSRDGWLIGAAATFDSSSNKLAATSLAFGHSTPQYTLHSFVINSTDFGASLYHKVASNVEVGTQLGWKVGGNGADYALATKYAPSRDLTVRAKVNSSSQVAVAATHSLSPALKLTLSTQFNLAANDAHKFGLGLEFDPSN
